Laboratory results from patent US20220089776A1 (OREGON HEALTH AND SCIENCE UNIVERSITY, published 2022).

How the values were obtained:
mouse FXII = target: T1, mouse FXII (mouse, UniProt Q80YC5 20-597); assay: Western blot of recombinant mouse FXII, non-reduced and reduced SDS-PAGE; primary antibody murine 5C12
T1 construct: mature; Plasma protein; Tested only in the aPTT assay
T1 sequence (looked up): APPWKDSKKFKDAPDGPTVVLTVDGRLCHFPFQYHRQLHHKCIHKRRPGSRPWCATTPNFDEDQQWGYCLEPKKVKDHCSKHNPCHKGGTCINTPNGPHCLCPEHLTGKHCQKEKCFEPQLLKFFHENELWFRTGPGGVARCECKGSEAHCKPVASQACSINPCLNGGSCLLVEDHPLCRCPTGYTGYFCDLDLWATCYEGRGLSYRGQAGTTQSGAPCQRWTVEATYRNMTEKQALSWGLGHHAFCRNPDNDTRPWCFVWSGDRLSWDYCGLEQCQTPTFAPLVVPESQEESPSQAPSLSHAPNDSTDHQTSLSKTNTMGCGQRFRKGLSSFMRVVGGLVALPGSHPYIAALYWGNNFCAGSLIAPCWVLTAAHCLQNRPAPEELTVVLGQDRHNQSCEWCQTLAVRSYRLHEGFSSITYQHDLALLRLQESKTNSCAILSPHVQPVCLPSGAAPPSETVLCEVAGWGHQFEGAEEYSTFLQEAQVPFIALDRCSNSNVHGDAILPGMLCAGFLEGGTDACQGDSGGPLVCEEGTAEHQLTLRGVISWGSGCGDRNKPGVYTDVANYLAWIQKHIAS
From the text: (§1) FIG. 3A-3C: Species specificity of 5C12. (FIG. 3A) Western blots of platelet poor plasmas from different species (indicated above each lane) size fractionated by SDS-PAGE […]. Species included in alphabetical order: African green monkey, baboon, beagle, cat, cattle, chicken, cynomolgus monkey, dog, elephant, giant anteater, horse, human, human deficient in FXII, llama, marmoset, pig, rabbit, raccoon, rat, red kangaroo, rhesus macaque and tiger. Human plasma and human deficient in FXII plasma were used in all gels as a positive and negative control, respectively. […] 5C12 also recognizes both the alpha (comprising both the light and heavy chain of FXII) and the beta (comprising only the light chain and a nonapeptide fragment of the heavy chain) form of activated FXII (FXIIa) (FIG. 3C). The primary antibody for all Western blots was murine 5C12, the secondary antibody was goat-anti-mouse polyclonal.

cattle FXII = target: T2, cattle FXII (cattle, UniProt P98140 20-612); assay: Western blot of platelet-poor plasma; primary antibody murine 5C12
T2 construct: mature; Plasma protein
T2 sequence (looked up): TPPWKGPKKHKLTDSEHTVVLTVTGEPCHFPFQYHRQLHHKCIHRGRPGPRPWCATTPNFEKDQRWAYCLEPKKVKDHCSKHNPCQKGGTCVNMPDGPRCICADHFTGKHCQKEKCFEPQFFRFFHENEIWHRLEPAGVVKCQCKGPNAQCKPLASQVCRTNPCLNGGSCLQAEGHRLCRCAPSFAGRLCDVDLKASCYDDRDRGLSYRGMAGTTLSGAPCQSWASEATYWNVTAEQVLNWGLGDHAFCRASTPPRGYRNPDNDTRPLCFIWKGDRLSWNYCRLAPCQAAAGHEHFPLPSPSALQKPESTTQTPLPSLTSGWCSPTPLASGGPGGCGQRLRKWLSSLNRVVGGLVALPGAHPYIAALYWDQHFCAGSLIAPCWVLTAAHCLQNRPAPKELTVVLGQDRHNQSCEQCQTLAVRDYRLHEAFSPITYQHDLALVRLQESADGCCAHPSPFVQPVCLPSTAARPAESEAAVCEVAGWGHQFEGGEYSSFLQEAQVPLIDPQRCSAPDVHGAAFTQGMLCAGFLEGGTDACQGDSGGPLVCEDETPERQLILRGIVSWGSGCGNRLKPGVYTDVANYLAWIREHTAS
From the text: as §1

pig FXII = target: T3, pig FXII (pig, UniProt O97507 20-616); assay: as above
T3 construct: mature; Plasma protein
T3 sequence (looked up): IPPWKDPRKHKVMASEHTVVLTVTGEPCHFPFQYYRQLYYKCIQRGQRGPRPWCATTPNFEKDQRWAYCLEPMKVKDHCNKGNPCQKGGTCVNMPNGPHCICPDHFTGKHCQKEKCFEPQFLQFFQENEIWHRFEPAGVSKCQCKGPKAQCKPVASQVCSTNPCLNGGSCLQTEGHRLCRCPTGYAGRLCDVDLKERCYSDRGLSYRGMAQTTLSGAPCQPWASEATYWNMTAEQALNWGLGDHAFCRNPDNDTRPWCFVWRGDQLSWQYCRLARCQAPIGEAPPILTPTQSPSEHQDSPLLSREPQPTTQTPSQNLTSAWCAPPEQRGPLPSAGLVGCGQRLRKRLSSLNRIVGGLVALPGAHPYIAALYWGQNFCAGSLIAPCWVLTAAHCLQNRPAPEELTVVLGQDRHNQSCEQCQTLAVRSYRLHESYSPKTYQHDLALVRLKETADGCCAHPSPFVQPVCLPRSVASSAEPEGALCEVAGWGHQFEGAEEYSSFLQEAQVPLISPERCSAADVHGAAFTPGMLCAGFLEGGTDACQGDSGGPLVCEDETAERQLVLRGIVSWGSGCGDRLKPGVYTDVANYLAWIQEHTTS
From the text: as §1

rhesus macaque FXII = target: T4, rhesus macaque FXII (rhesus macaque, UniProt F7FY72 20-615); assay: as above
T4 construct: Plasma protein
T4 sequence: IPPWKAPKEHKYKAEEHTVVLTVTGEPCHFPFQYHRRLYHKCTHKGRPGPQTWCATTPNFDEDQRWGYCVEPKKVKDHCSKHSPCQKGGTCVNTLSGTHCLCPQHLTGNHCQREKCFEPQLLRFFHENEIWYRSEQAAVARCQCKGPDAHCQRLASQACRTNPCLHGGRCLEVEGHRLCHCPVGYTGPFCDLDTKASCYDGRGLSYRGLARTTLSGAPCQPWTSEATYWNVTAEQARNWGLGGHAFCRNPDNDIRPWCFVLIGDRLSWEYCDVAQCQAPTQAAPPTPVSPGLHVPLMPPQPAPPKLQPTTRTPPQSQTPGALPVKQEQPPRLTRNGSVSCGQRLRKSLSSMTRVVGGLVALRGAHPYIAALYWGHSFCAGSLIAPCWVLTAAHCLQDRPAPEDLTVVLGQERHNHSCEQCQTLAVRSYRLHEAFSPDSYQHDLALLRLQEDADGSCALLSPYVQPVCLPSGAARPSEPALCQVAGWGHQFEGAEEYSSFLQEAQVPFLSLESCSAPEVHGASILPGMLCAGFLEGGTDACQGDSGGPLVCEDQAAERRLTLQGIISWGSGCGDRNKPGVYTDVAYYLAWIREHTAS
From the text: as §1

Measured: binding result

B1: mouse monoclonal antibody 5C12 (antibody, mouse IgG1, kappa, V domains shown)
VH: DVQLQESGPDLVKPSQSLSLTCTVTGYSITSGYSWHWIRQFPGNNLEWMGYIQYSGNTNSNPSLKSRISITRDTSKNQFFLHLNSVTTEDTATYYCARWGSFDYWGQGTTLTVSS
VL: QIVLTQSPAIMSASPGEKVTMTCSASSSVNYMHWYQQKSGTSPKRWIYDTSKLASGVPARFSGSGSGTSYSLTISSMEAGDAATYYCQQWSGNPPTFGGGTILEIKR
notes: Purified from hybridoma; also called AB053; 5C12 MAb
no binding: mouse FXII | cattle FXII | pig FXII | rhesus macaque FXII
